Columns and labels:
Experiment in all cases: yeast display titration; KD, yeast
[1] = target: Lysozyme
[2] = target: Rabbit IgG
[3] = target: Goat IgG

For KFWATVFSYGNLFEVPVYAETLDEALELAEWQYSGAYEYVTRVRP (designed binder) [Lysozyme A0.3.2], the Kd [1] was about 1550 nM.

KFWATVHSVHGYFEVPVYAETLDEALELAFGQYGNALGYVTRVRP (designed binder) [Rabbit IgG 3.2.3] gave a Kd [2] of 1.5 nM.

Work on KFWATVYDYDADYYFEVPVYAETLDEALELAVWRYYSNHSDYLVTRVRP (designed binder) [Goat IgG 2.2.1] yielded a Kd [3] of 0.2 nM.

Reference: patent US20160244745A1 (published 2016)
